Data published in the DeepSol protein solubility set.

test: soluble on expression in E. coli; label from the status in PepcDB or PDB records

Sequence	soluble on expression in E. coli
MTDLNKHIKQAQTQRKQLLEESRELHREKLLVQAENRFFLEYLTNKTEEYTEQPEKVWNSYLQKSGEIERRRQESASRYAEQISVLKTALLQKENIQSSLKRKLQAMRDIAILKEKQEKEIQTLQEETKKVQAETASKTREVQAQLLQEKRLLEKQLSEPDRRLLGKRKRRELNMKAQALKLAAKRFIFEYSCGINRENQQFKKELLQLIEQAQKLTATQSHLENRKQQLQQEQWYLESLIQARQRLQGSHNQCLNRQDVPKTTPSLPQGTKSRINPK	not soluble
GEEKKDSKAFIDVSAATLWTAPDSLRPIDVPSATNPVDLWKWTKSMTLDEKLWLTNANKLETQALLGQEVTVVDKKGDWVKVLVHGQPTPRNEEGYPGWMPEKQLTYNQEFADKTNEPFVLVTKPTAILYINPSEKHKSLEVSYNTRLPLLSEDTISYRVLLPNGQKAWLRKNDGTFYRSQNDIPTPAADDLINTGKMFLGLPYIWAGTSGFGFDCSGFTHTIYKSHGITIPRDSGPQSRNGVAVDKEHLQKGDLIFFAHDQGKGSVHHVAMYIGDGNMIHSPRAERSVEIIPLNTPGYIEEYAGARRYLP	soluble
MPITNERKETIRVAKKLNKFIALPSMLNWKVHESDVLRRGRVLCMIRSKNFFFPDDISSLKMRMATVTKHGYLVLYESVDEGLVIDLRSATHILTECDKYKSERIKYSRSHVKVRLPRGNVHMFLRDDDISKWTAALLEAHVSFRPTAAARVVAKPRQQPSKNVETMTAIEPVEVMDSPTSPVTSSNSGLITVLERGVSSEDTLIPSVRRGVIPVNTLRYQIEKHLEMCTPASEQLSKSSDPNISSMYVFHQGIQVKQEPIDDDQEEEQQVQKQLVFKIEGSEDEEAVKKEWWLRSLRC	not soluble
MAFKSDVIFEEIKERIATDKEMVKKVGTSFRMTIAGADGKTKVWTIDAKSDTPYVGDDSSRPVEIEINIKDSDFIAIAAGKMKPDQAFMQGKMKLKGNIAKAMKLRTILDPKMLKAKL	soluble
VHYGLKGITCVETSISHIDGEKGRLIYRGHHAKDIALNHSFEEAAYLILFGKLPSTEELQVFKDKLAAERNLPEHIERLIQSLPNNMDDMSVLRTVVSALGENTYTFHPKTEEAIRLIAITPSIIAYRKRWTRGEQAIAPSSQYGHVENYYYMLTGEQPSEAKKKALETYMILATEHGMNASTFSARVTLSTESDLVSAVTAALGTMKGPLHGGAPSAVTKMLEDIGEKEHAEAYLKEKLEKGERLMGFGHRVYKTKDPRAEALRQKAEEVAGNDRDLDLALHVEAEAIRLLEIYKPGRKLYTNVEFYAAAVMRAIDFDDELFTPTFSASRMVGWCAHVLEQAENNMIFRPSAQYTGAIPEEV	soluble
MAHHHHHHMRRWGAAGPLRSGLQLRQVASAARRRQPAQLKIPISDAPAHVKAMERPRSKLETPAAYSSFRSTETIEEFRENYKYLAAGERETSVTARVAGRITSLRDMGKMLFATVRSSGVDLQLVVHVGEHFTRDCLKQLRASLRVGDIVGAEGIPCRMQRGELSLAASRVEVLAPYVCRDQVVCPDLRGFTQLQDNDVRYRYRFVDMMTNRSVIDTIRKRHTVLQSLREYLDMRHFVEVETPILHTVASGANAKPFVTHHNANNADLFLRVAPELYLKQCVVGGLERVYEIGKVFRNEDADRSHNPEFTTCEFYAAYHTYEDLITMTEDIFRHLALRANGTTQLQIQCERAGITREIDLGATFRRISVYDEIQSASGVELPPPNELNTPKGLAYMSAIMLRHDIQFPAVRTAAKMFDKLIDFFITSHIVEPTFVMDHPIFMSPLAKEHSSRPGLAERFELFINGIEYCNAYSELNDPQEQCHRFQQQLIDRQGGDEEAMPLDETFLKSLQVGLPPTAGWGMGIDRVVMLLSGSSTIRDGIIFPLLRQDTRSHDCKRRHRVATFFDFNHQMALLCLSGVEQEMKRRGFPEASCAHIRELRQTIRDLGQRSGESDLTNFNCGEWWPGLTKTMIRLMCGRPRS	not soluble
MSLKVWGRGSSFNVQKVLWLVGELGLSHRHIPAGGDHGGLDEPSFLAMNPHGRVPVIDDGGVMVWESHAILRYLAARYGGSEWWPASPVDRAQADGWMDWAQTALQRDFLTGVFWGWYRTPEPERDNDAIRTALAACAKHFLLLDQILANRPFLGGDQPGLADIPCGTHLFRYYALEIDRPRTPNVEAWYARLQARPAYRKAVMIPFDEMKGRLAYEGHHHHHH	soluble
MGSDKIHHHHHHMSETENNELTAGKQSKEPRSNQKLKLLYLAKILLNNTDANHDITLDEILNKLHAYDVTAARKSLYDDIAQLNDFGIKTQKTQYGRTVHYKVIGRAFELAELKLLVDSVAAAKFITEEKSNELIKKLESLTSRQEAATLQRQVYVAGRVKTMNSDIMKNVDAIHNAIANNSSLSFQYCRWNTKKELEVKHDGARYHVSPWGLLWNDGNYYLIGYDHDTQVKDIRHYRVDKMKNILIENKVREGREKLKKLDIASYGKSKFGMYNGEEIKAEILCKNSAIGVLIDRFGTDVTILKKDEAHSRVFVKVADNKLFIHWIMAMGDNFKIIGPENLVKEVHDELNRLAKQYELAD	not soluble
MGSDKIHHHHHHMDPVLELEAVSKCFQRYRHPRDRLWELLFPRTSRVQTFQALENISLQVEPGRTIGIVGRNGAGKSTLLQIVAGTLTPSSGRVKVRGRVAALLELGSGFNPEFTGRQNVFFNGQLLGLTPQEIRDRFAEIVAFAEIGDFLDQPVKTYSSGMMVRLAFSVVAHLDPELLIVDEALAVGDARFQARCMKRIRELKEKGTTILFVSHDANAVRMLCDEAVLLEGGRILERGNPNWVLNHYNQLLGLEDRDNYRPLAQETQQAGLCYVEQAAHPNRHGNGRATISKAWLSGSGLQADKVLQGGDLTLTFQLQIHQDLPDALIGLSIRNLYGVVIYGTNNLQLEKRPKALAAGSSPELSFRWRNQLNAGVYTISIAITSEDCEVYDWIDEALVFEVVNDRFCEGVIDLGADLHWISEFSSPAAIATSRDSLGSTSPSS	not soluble
MAGDPMAYQQGKQGQNVEKESTRQQETKPIHVKDTTQETKDNGTRTDIAKHLVSVAEKNPDVKDATAVVLGGYAVVGIDVDDTLDRSKVETIKYSVAQALKNDRYGANAVVIADPDTVSRLREMSREISEGHPVTGILDELAAIVGRVLPEVPNDVIDNEDEPQTKQQNDQLNRKQQQEMEKEQNDQSDHHMKKNNNDLEHHHHHH	soluble
MSLTGLFEPIAPQAPLAERLRPKSLDEVVGQRHLLGEGKPLRLAFTSGKLPSMILWGPPGVGKTTLARLIANTADAEFIPLSAVLAGIKDIREAVERAEHTLQQSGRRTILFVDEVHRFNKGQQDAFLPFVESGLITFIGATTENPSFEVNSALLSRAQVFVLNALSEDELKQLLERGKQEMQLDIPLTPEVVEQVLGYADGDARRLLNFVEGLFNAALTAGVTKIDAEFLQSTMASKLRRFDKGGEAFYDQISALHKSVRGSNPDAALYWFLRMLDGGADPLYLGRRIVRMAVEDIGIADPRAQTMALEACQIYERLGSPEGELALSNAVIYLAVAAKSNAAYMAYNQAKAFVASDKSRPVPLHLRNAPTKLMKDLNYGKEYRYAHNEPGAYAAGEDYFPDGLEAIQFYVPTQRGLEGKISEKMAHLRALDEEARSKEGHHHHHH	soluble
MQIKLANPRGFCAGVDRAIEIVNRALEVFGPPIYVRHEVVHNKFVVEDLRSRGAIFVEELEQVPDDVIVIFSAHGVSQAVRTEAAGRGLKVFDATCPLVTKVHIEVARYSRDGRECILIGHAGHPEVEGTMGQYDAVNGGAIYLVEDEADVASLEVRNPESLAFVTQTTLSMDDTSRVIDALRKRFPAIGGPRKDDICYATQNRQDAVKQLADECDVVLVVGSPNSSNSNRLRELAERMATPAYLIDGAEDMQKGWFDGVERIGITAGASAPEVLVRGVIQQLQAWGATGADELAGREENITFSMPKELRVKSLLLEHHHHHH	not soluble
MGHHHHHHSHMACKCDCKNKQCKCGDKCECSGDKCCEKYCCEEASEKKCCPAGCKGDCKCANCHCAEQKQCGDKTHQHQGTAAAH	not soluble
GMATNSSTEQSLTKKVWNLATTLAGQGIGFTDYITQLTYLLFLKMDAENVEMFGEESAIPTGYQWADLIAFDGLDLVKQYEETLKLLSELDNLIGTIYTKAQNKIDKPVYLKKVITMIDEEQWLIMDGDVKGAIYESILEKNGQDKKSGAGQYFTPRPLIQAMVDCINPQMGETVCDPACGTGGFLLTAYDYMKGQSASKEKRDFLRDKALHGVDNTPLVVTLASMNLYLHGIGTDRSPIVCEDSLEKEPSTLVDVILANPPFGTRPAGSVDINRPDFYVETKNNQLNFLQHMMLMLKTGGRAAVVLPDNVLFEAGAGETIRKRLLQDFNLHTILRLPTGIFYAQGVKANVLFFSKGQPTKEIWFYDYRTDIKHTLATNKLERHHLDDFVSCYNNRVEIYDAENNPQGRWRKYPVDEIIARDKTSLDITWIKPGGEVDDRSLAEL	soluble
MGSDKIHHHHHHMTKHNKAYKFRLYPTGDQAHLMRKTFGCVRFVYNRMLAERKEAYEKHKDDKEQLKKQKLPTPAKYKAEFEWLKEVDSLALANAQLNLQTAYKNFFRGQNDFPTFKSKKDRKSYTTNVVNGNIMLLNGHIKLPKLKMVRIKQHREIPQDHVIKSCTISMTPTGKYYVSILTEYEKEIVQNEVETVVGLDFAMDRLYVSSEDERANYPKFYREMLDRLAKAQRVLSRRTKGSIRWNKQRIRVAKLHEKVANQRKNFLHHKSKELATHFDVVAIEDLNMKGMSQALHFGKSVADNAWGMFTSFLAYKLHEQGKQLMKIDKWFPSTKTCSSCGNVKNMSLSERVYSCICGVNLDRDYNAAINIKNEAIRLLALA	not soluble
MTSIEPTHTGKKVIVGMSGGVDSSVSAYLLMQQGYQVEGLFMKNWEEDDNDEYCAAAEDLKDAQAVCDKLGIKLHTVNFAAEYWDNVFEYFLAEYKAGRTPNPDIMCNKEIKFKAFLEFADDILDADYIAMGHYVRRRDNEDGTTQMLRGVDNNKDQSYFLYTLSHEQVARSLFPVGELEKHEVREIAKQMGLITHDKKDSTGICFIGERKFTEFLGNYLPAQPGNIETADGEVIGTHQGLMYHTLGQRKGLGIGGMKNSNDDPWYVVDKDLKRNVLVVGQGGHHPRLMSNGMLVNQLHWVDRKGPINGSQIVVKTRYRQQDIPCTLTYLDDNTLKVVFDEPVAAVTPGQSAVFYDGEVCLGGGIIDQLIRGLEHHHHHH	soluble
NAAQALVNVQTSVIPKTAFAARDFVDYSFPQEQKDKEKRKQQWVKNSHTKNSDVQPFAEFAILEIPLFSKSKVDRKIFNHFIQPAIRTYKQLGDSLNIFANPTLDQLKQNRYYVLGYPFLKNKVSSLFLNQTGKKKGIFRRKYTNIPWKTSYYLN	not soluble
MGSDKIHHHHHHMFRTVALTGATGFIGRVLIAKLAASGWKVRALARRVPFRQDLPLVEWICGDMNCDSVLCDLVSGTEAVIHCAGAIRGKSWDDFSRTNVTGTRNILRAASGAPSCSRFLFISSLAAREPHLSWYARSKFEAEQLIPGFSGLASTVFRPAAVYGLGDKAMQPFFQAMRYGILLVPGDPGNRFGLIHVDDMVAAIHNWLEAGQPVKGTYEIDDGTSGGYDYTSIAALAEQVLSRPVHCLQIPLGGIRMLARFNLWLAHLLNYAPILTPGKVMEFQHPDWTCDISSLKRELAGWSPVTKLETVLPLLVRM	not soluble
MAPRKKVNEMVIRKTANLTDKMRKERTVEEFEEVKTAQSKSYESDTSSAESLRQKRTAPSAIRTVQIQKEIVLPYDGNLVSVYEKSSNTRSLDTISEPGDLEEFKKKAEESKYVGPQIVPMKFVTTDVETPVKAIFVSDFDFCQAMHHPPQSSTQSKKVEFSKRFEVEQKFLEEMVADIEKLIVSSGRMDVELKVVKAREENDSPRAKISLVRKIHAEKVDDNLNNQAGLVGFILPDLEMKDHGIPLKITKNQQVPSGQKMFESFKRLFGY	not soluble
